The nature of the data set: protease stability score; higher = more stable; yeast display proteolysis, trypsin and chymotrypsin.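 Note: relative to predicted unfolded state with 0 unfolded-like and 1 meaning tenfold more protease.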
Take “DEDEEDVDRVSRRWARAMTTGDEDELRELLDPNTRYVQGDKHLHGRTQFERHLREMRFIIHDVRVDNITIIDGRMHIHGHVVGELRTEDHEHHFIFRFHLIVMKINGKWLIKHVDVQ”: the protease stability score is 0.819.

In turn, “DEDEEEAEERVKEWIKALRTGDEDHILELVDPNDRFIINGVHLHGREFLLRWLRELRVDDVEVKTIKFVDGVAHVDTKMRVTVDGRETELETRLIWKKFDGRWFIESHRIR” yielded a protease stability score of 1.62.

The sequence “DEDEEEAEKFFWTWVESVLTGDEDMLHHLVDPNVRYSQGEKQIHGRESVVKFMSEARVDSIRIKSMHIFNGRINIDSEIDGVINGKRTRIKVHLYILKVDGRWLMQSIEVK” registered a protease stability score of 2.03. “DEDEEEAKEFLRIYIEALRTGDEDLWKEMADPNMRLIVGDKERHGRESYTHWERELGYRLEHIHIDHVTFQGDKVDVETTLRIHINGQTHDVEIHLIVTKIDGRWHMKEIIIK” registered a protease stability score of 1.08. In the case of “DEDEEEALDFMRLLVESLQTGDEELISRMADPNVLLIVNGVEHVGREFYVKWVKHLVERVDHMEIRLKRIEIYDGRAHLDTEVIFRFNGRELRKKTHLIIEKVDGRWILKSVIVE”, the protease stability score was determined as 2.35.

In turn, “DEDEEEARKSFKHLLRSRMTGDEDSLKSLIDPNARFDIDGKELIGREAEELLLEKFKNIKLHDVKLNDWRVDEHHVVWRIELDGFYNGKRDSLDFTLIVKKVNGRWVIHQVKLI” showed a protease stability score of 1.39.

Sequence “DEDEEEIKRMIEEWFRSLVTGDEHQLKELMDPHVRLDINGVEHIGREEIVERLVKEARQADHMEFRVRDVRLVGDYAEIDGELIVNYNGREKSIETRIILWKFNGRWIDHQVHYK” returned a protease stability score of 1.03.

In turn, “DEDEEELEKMLHKMLESLRTGDWKDITENLDPHTRFNINGVDFHGRELAHEVLHEWFERYKNIRIFLNTSRTINGRVELILRIEIGDKEEEMRILVIKVDGRWFMDTVDVRTR” registered a protease stability score of 2.13. In turn, “DEDEEEMEKMSREISEMLLTGDFDRLLELLDPNYRLRIGDKDLHGREEAKKHMHELFRHLGVDKFEVRLKQVELVDGVIWVHIEQRYDGRDFQIHVINKKIDGRWHVRRVEFE” gave a protease stability score of 1.72. Sequence “DEDEEEMHHRIEEHFEYLRTGDWKLIRNLVDPSVRVDVDGKEHHGWHEFVRYAVHIRVRRYELKHIRIIDGQVDFQGRIDGEIDGKFRSFNIFIIAQKIDGRWIFKEVRMH” showed a protease stability score of 1.68. “DEDEEEMRRVVELLVRDHFTGNFEKLKDLFDPNAKSDVDGVSMVGREWLEFLKRYLGADHIEVRVRHEDYYGNKVHFHLEIISRYGDKEIHVDTEMVIDKVDGRWYVRETRFK” showed a protease stability score of 0.854. As for “DEDEEESRRFTEILLHKFWTGDEDWYRKMADPNDKSVVGDKLFHGRDEVDRAIHEFLRHLGVDHFELHRLEVDHYNGKAEVRSDMILRVNGQERRMILKVHNTKFNGRWTLESVRIESR”, the protease stability score came out at 0.715. With “DEDEEEVIKFFQEFLRDELTGDWHEVHRMLDPHARLDINGKHFVGREDVTEFFKKLVNELRIHDVHIKDVRIIGEKASIDTSVDGEVNGRKRHFETRIIILKIDGQWFLHEVHMR”, the protease stability score came out at 1.47. Next, “DEDEEEVRKFLHLELRSMETGDEHDLRRLADPHVRIHINGVILHGWEFFLETFRKLGFDHLRIEHVEVQGEKVHIKSRFEIGDKSFETEIIIRKVDGRWYVESIIVN”: 0.873; “DEDEEEWHRFLELVHHFLRTGDWRRILDLIDPRALVHVGDKTFHGRHAIEHLLRHIHDRIPGMKQSLIIDHHDSQGDKIHLDVTLDLHFNGVEYHLRERTLELKINGKWVEKVREVD”: 0.821; “DEDEEEYRRMHEILDDALETGDEHTISRMADPHVRNEINGVKLHGREIWFEYMKRLLDHLGVDNIKIKIRLRHIDRQGDKVLSETRLHVYFNGVEERRRTSQVWLKIDGQWHLHHVSVE”: 0.869.

The sequence “DEDEEFAENVVERTIHHTQTGDWRMLKHLLDPHVRMNIDGQELHGREQWIRFMEQIKGATLELHIEDFDSQGEKLTLHVRTILVFDGRKYERHVDLLILKVDGRWHIHQFIVR” came in with a protease stability score of 1.41. As to “DEDEEFAKELLERTAESIVTGDEDMWREYFDPHARIEFNGKDYHGWHEFERMLRELRVHRVEVEVKRVHLYDGRMDVKGELHIKGTFDGRRVEESTDVDYFIIKIDGQWYIRHETII”, the protease stability score came out at 0.761. For the sequence “DEDEEFSKEAFEMVEWVIRTGDERLIEHMMDPNAKILIDGQEFWGRHIFSKHVEELGIDHIDDFQVKDVTFFNGRVNLNGELRGNFNGKETTFELHTIALKVNGQWINHSLEIK”, the protease stability score came to 0.658. The value for “DEDEEFWKELLRLFNEALITGDEDLLSHYADPNTRIRDENHKIHGRERYSRLMVKLGIDHVHLHSFTIIDGVAHIHLEWHQGDKTLDVRSYSRKFNGRWFLTHVRIK” was 1.05; that for “DEDEEHARHMLEIFMHAVITGDEDTLKELVDPNVKLVVNGREFHGWEEYLKVHRHWRMRDAHIKHVEVQGEKVIVDTRLHGRVDGKLTDFRTEIIVRKINGRWHLESERVH” was 2.13; that for “DEDEEHAYRIFKILLESVYTGNEEMLHTLLDPHARLVFDGVHHHGRETVSYMMHHWRVEEFHTHSFHVDIINGVADLKWDGHITGHFNGKRQESRVEIRFFLRKVDGKWLNESVEIIFR” was 1.49. The value for “DEDEEIARKIMEMLIEELRTGDEEKSTENADPNVRVHFNGKDLHGWEEFSRLASKFKGLRFILRRMDVFNGRVVIDGEERWDGRTHRVILHIEKVNGRWRIKQVDIH” was 1.63; that for “DEDEEIAVKSYKKIVEDFFTGDEDSARRNADPDVLLRVGDKELHGWKHMTSWVHELRIHRIDIREIRVIGDKMFLHGEVDSEIDGKRLEFHLKLRMEKVDGRWIIRKIEIK” was 1.49; that for “DEDEEIDKHVAKHLEELFLTGDEKRLSQYFDPDVRNEVNGKEFHGRELLLKVLRDFGADHRTVEHREVSLYGEKMRFHIHLRLHVGDKSMTTILHIIIDKVNGRWHFEKIRIDVR” was 0.798. The value for “DEDEEIIEKWVKMMLDAAHTGDERIIEENFDPNTRIHVDGQNHHGREHVHELRRRADYIRIILIIRSIRTQGDYVHVKGEIRIRINWNGRELHLEVEVEIIFLKFDGRWHIRSIVSI” was 0.889.

Sequence “DEDEEIRTRSLRLLIQLLITGDEEIFKQLFDPHALVIINGRRHHGWTLLEEYWRRLGADVIKSVELENTDDVNGVLILDMRLHMHINGRDDSQRIHIIATKINGKWRNESIVLS” returned a protease stability score of 1.22. The sequence “DEDEEISHRMVRLIMQLMVTGDEESLKEYFDPNTRLFIDGRNNHGRELAVDEIQKHFEELGVDHIEIRIHHKDAQGDFVEIHIRLIIHVGDFEVRSTVHIFVRKVDGRWMIEKIEIK” displayed a protease stability score of 2.03.

“DEDEEISKRLLKQLIHMLKTGDEDLFWHLFDPDTRLIVGDKEDHGREELAKSIRELWHEIRIERLHLRSIHIIGDFIHLIVRLIRNVNGKKDDINLELIVIKVDGKWRFKEMEIQ” gave a protease stability score of 1.44. In turn, “DEDEEITERIIRLLLNAWMTGDEEMLKRLFDPHVRIDQGDKNLIGWEELERETRRIDHIRLDLRIKHIKVYDGRVEINSFLHVDLHINGVTLHHELRMHIIIEKVDGRWIIHSQKLE” had a protease stability score of 1.25. In turn, “DEDEEKAKEAWEDIVRDIETGNEESMEKMLDPNTRLVVGEKERHGWESASKFVRELRHRVDHVELRLKDSKLYNGRVELDGLLIENFNGVEVRHKMIVFILKINGRWHIESVIIH” displayed a protease stability score of 1.44.

In turn, “DEDEEKARKFTELLVRSWRTGDEDSLREMVDPHVRVDVDGVKLHGWHDFMKLVRHIRVRDLHNREFTFFEGRADIIQETDVDIGDKERRTVITIRMTKYDGRWFLHNVTVH” came in with a protease stability score of 1.38. Regarding “DEDEEKKDEARRLWEENLMTGDEETLFRLADPHVRTVINGVEFHGREEMLKAIRWLRHDLGAKHIDSIHIDSVTIQGDFVIVHGHLRFSIGDKRTDSEVHLHVLKVDGKWYVHEVNIN”, the protease stability score was -0.183. Turning to “DEDEEKLKEFRDVLLHAISTGDEETIKTLVDPHVRIEIDGKERHGRDKVTKLFRDLGVDHVRLTEVSIIGDKLHLDLRLRYGDKERTMIWIISKINGRWLIHTVETH”, the protease stability score was 1.15.

As to “DEDEEKVEHISKEYFRSFVTGDEDKLRKLLDPNARVYFNGQTVIGRELATKIVLELRNRQVEVDHLHIEYQGDKARLHQITTIDGHINGRDEWFEFHIEVHLRKVNGKWVIQRSEFEIR”, the protease stability score was determined as 0.252. Turning to “DEDEELAKHAIKHWLEALETGDEKRLKELIDPNTRLIVNGQEFHGMESVSKKLIEEIERIPNVTLELHDVRIYNGRVNTDVTVRYNGRTITLHLIILKVNGKWIMESIQLH”, the protease stability score was found to be 1.78.

For “DEDEELAKKAVEEFFTAWETGNEERLEELMDPNVRSHINGVDLHGMERTSEYIRRLGHTKVETYLRRVRVFENRVEVDGDIIVDGRKHKFHLDMRKINGRWFIHRVSVK”, the protease stability score was 2.42. On to “DEDEELAKKFIEEWHESVLTGDEDSLRKLADPNMKVNVDGRHMVGWEYYKHLLERIDHLTSIEIKRLRVIDGVIDTDVRMDITFDGKRHLLETQLIVLKVNGRWHLRSISMK”, for which the protease stability score was determined as 1.36. With “DEDEELALKMLEQWLRDLLTGDEETMVDLLDPNARLEIGDKENHGRDEVRKFWEELKKRFKNVRMEIEVHEIRVIGNKVHSINTLIIIIGDKRIKHHIHVHVVIFNGRVHSVHISIH”, the protease stability score was determined as 1.35. Next, “DEDEELARKFIKKTSEARETGNEDDFMNLADPNVRQDINGVPIIGREEVSRIISHLRIRMEIRIRDVRIVGEKVELDVHIRMDIDFDGQRIHDKRDVHIILVKIDGKWLLHSVNHR”: 0.536; “DEDEELARKVLKVWNQAVQTGDEEVLHKLFDPNVQLVQGDKQLHGMESLVRFLRRYDVVRHVDSDVERIHVQGDKIRVTIRLIVDMEINGKRVRTELTIHFIIEKIDGRWVLRELHFE”: 0.964. The value for “DEDEELARQIWELFVRAEETGDEELLEKLIDPHTRLHIGDKVFHGRDAIKHIRKRVDHVKRVHVESIRVFDGRVEIHSRQRWEINGVEVEQKFRFTMQKINGRWIMHDMSIL” was 1.79; that for “DEDEELARRHLKRLMEIWNTGDEDSHRHLADPHMRYIYNGKQTHGRQVSAKILLEMRIDHLEIKRMHLVDGKLEIDGRMEGEVNGRKDTVEVIIHNEKVNGRWIIRELQFG” was 0.503. The value for “DEDEELDRKFTTLFLHLWETGDEDTMRDLLDPDVRLLIIYNGRHIEVHGREHMSKFLKDFWRKFKNLRIHVKHVEAIDGVVHISGETRFDGRSTLVQIDIDVVDGRIKSERYIFR” was 1.76; that for “DEDEELIEKLLRLEEFAHKTGDERIMEELADPNTRLDINGRREHGMESFIRWLREARYTHFIWRDKIEIGEKMEIQGEVEGTYNGVRHRTEVILFVEKINGRWIIKEIEVR” was 1.76. “DEDEELLREFFELLVEAELTGDEKEITRFADPNVILFQGEKEFHGRDFLIRLIMEIRIHHHELERFHLDVFNGRAEIHVDNRRDGWFDGKRIHTKVDLHIHSEKIDGRWLLKNINEILR” gave a protease stability score of 0.716.

The sequence “DEDEELLRRRADLFLKAYITGDENLLKRLADPDVLFDVNGRVFHGREHFITWLHRQLREFKNMRIHIRDIKHEVQGNFLHSEVDVTININGKEHWFILILIASKVDGKWIVEQIEIRFE” yielded a protease stability score of 1.48.
